Test results from patent publication CN112724255A (CHENGDU JINKUN BIOTECHNOLOGY CO LTD, dated 2021).

Key:
癌胚抗原 (CEA) 抗原 [1] = biological target: T1, 癌胚抗原 (CEA) 抗原 (UniProt P06731 35-685, limits assumed); experiment: ELISA, CEA antigen coated, detection with anti-His-HRP
T1 construct: The CEA antigen used for coating is not described further
T1 sequence (looked up): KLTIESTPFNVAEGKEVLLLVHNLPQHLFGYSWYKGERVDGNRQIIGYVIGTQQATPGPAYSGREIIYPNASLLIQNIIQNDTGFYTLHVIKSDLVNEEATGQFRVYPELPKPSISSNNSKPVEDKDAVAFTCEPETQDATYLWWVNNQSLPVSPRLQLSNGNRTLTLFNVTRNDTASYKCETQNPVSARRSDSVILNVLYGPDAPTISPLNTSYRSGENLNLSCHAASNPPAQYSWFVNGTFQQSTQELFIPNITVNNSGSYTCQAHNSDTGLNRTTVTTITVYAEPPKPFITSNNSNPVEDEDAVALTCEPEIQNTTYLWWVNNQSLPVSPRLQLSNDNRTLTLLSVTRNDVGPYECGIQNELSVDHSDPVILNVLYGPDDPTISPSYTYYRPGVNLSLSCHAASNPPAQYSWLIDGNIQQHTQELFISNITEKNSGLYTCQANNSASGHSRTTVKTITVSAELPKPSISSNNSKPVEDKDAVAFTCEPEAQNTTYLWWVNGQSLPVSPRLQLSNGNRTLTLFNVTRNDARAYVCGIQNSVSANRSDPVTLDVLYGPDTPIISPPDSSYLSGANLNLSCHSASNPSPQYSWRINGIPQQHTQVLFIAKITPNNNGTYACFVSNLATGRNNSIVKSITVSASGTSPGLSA

癌胚抗原 (CEA) 抗原 [2] = biological target: T1, 癌胚抗原 (CEA) 抗原; experiment: ELISA, CEA antigen coated; converted from 183.6 ng/ml with the relative molecular mass 27486 g/mol

EC50 (癌胚抗原 (CEA) 抗原 [1]): 0.184 µg/mL | EC50 (癌胚抗原 (CEA) 抗原 [2]): 6.7 nM
B1: 96ScFv 单链抗体 (靶向癌胚抗原的小分子抗体) (scFv)
scFv: MGQVRLRESGPSLVKPSQTLSLTCTVSGFSLTKYGVSWVRQAPGKALEWLGGVSSGALTAYNTALQSRLSVTRDTSKSQFSLSLSSVTTEDTAIYYCAKSVNGDSVPYGLDYWSPGLLITVSSGGGGSGGGGSGGGGSQAVLTQPSSVSGSLGQRVSITCSGSSSNIGGNAYVGWYQQVPGSAPRLLISATTDRASGIPDRFFGSRSGNTATLTISSLQAEDEADYYCASYQSTYSGVFGSGTMLAVLGTVAAPSVFHHHHHHHLGGC
notes: Expressed in E. coli from pET22-96ScFv and purified on Ni resin; The vector adds a C-terminal His tag and a cysteine; also called CEA小分子抗体; 本发明抗体片段
